Consider two molecules from patent EP1746106A2 (Biogen Idec MA Inc., dated 2007).

The target in assay [1] is T1, FLAG-tagged soluble muBAFF (murine, UniProt Q9WU72 127-309, limits assumed).
T1 construct: Anti-FLAG M2-purified, 500 ng used; not shown: FLAG tag
Kind of assay: co-immunoprecipitation with protein A-Sepharose, anti-FLAG M2 Western blot.

Assay [2] concerns the target T2, N-terminus FLAG-tagged human full length TACI expressed on 293EBNA cells (pJST552) (human, UniProt O14836 1-293).
T2 construct: also called FLAG-tagged full length human TACI; flag-tagged full length TACI; not shown: N-terminal FLAG tag
T2 sequence: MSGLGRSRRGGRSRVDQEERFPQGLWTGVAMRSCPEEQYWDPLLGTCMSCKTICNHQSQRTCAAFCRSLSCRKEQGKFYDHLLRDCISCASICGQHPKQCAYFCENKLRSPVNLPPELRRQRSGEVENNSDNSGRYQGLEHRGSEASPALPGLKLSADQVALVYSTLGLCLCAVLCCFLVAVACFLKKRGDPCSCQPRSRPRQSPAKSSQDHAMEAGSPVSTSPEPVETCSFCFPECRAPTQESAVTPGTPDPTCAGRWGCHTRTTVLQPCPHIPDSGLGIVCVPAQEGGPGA
Kind of assay: flow cytometry on 293EBNA cells transfected with FLAG-tagged full length human TACI; detection with rabbit anti-mAPRIL Rb1532 and anti-rabbit IgG-PE. A general note: Flow cytometry measures light scatter and fluorescence of single cells or particles in a stream.

T1 sequence (Q9WU72 127-309 limits assumed): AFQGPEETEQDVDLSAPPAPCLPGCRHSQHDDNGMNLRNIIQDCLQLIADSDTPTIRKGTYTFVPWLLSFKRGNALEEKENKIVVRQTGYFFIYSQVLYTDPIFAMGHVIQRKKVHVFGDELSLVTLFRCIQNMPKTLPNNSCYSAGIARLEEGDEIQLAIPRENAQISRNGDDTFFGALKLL

B1: human TACI(1-160)-Ig fusion protein (Fc fusion)
chain: MSGLGRSRRGGRSRVDQEERFPQGLWTGVAMRSCPEEQYWDPLLGTCMSCKTICNHQSQRTCAAFCRSLSCRKEQGKFYDHLLRDCISCASICGQHPKQCAYFCENKLRSPVNLPPELRRQRSGEVENNSDNSGRYQGLEHRGSEASPALPGLKLSADQV
notes: Used as conditioned medium (Optimem) from transfected 293 cells; also called hTACI(1-160)-Ig; PS882 product; not shown: human IgG-Fc
With B1, the binding result in assay [1] was “no binding (tested: 500 ng)”.

B2: myc-tagged murine APRIL (ligand)
chain: EQKLISEEDLNGGGGSKELAVLTQKHKKKHSVLHLVPVNITSKDSDVTEVMWQPVLRRGRGLEAQGDIVRVWDTGIYLLYSQVLFHDVTFTMGQVVSREGQGRRETLFRCIRSMPSDPDRAYNSCYSAGVFHLHQGDIITVKIPRANAKLSLSPHGTFLGFVKL
modifications: Glycosylated (expressed in Pichia pastoris); the letters do not carry the glycans.
notes: Purified from P. pastoris supernate; also called myc-muAPRIL; Myc-Murine APRIL A88
Consider B2, for which, in assay [2], the binding result is “binds”.
